System: K4 kissing-loop RNA reporter
Experiment: apparent KD of K4 kissing-loop reporter; higher = weaker reporter binding
Settings: Eterna round: R107; input ligand: none
Description: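 RNA-MaP round R107: designed RNA switches with theophylline, tryptophan, arginine or FMN aptamers are transcribed on-chip within common flanks. They are titrated with a labelled K4 kissing-loop RNA reporter in RNA-MaP buffer (100 mM Tris pH 7.5, 80 mM KCl, 4 mM MgCl2), without ligand or with the indicated ligand. Median apparent KD per design.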
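Further: bound reporter read as fluorescence of individual clusters on recovered sequencing chips by microscopy, with normalized cluster intensities fitted with a binding model.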

Sequence	apparent KD of K4 kissing-loop reporter
CGGAUGUAGUGAUGUUAUAUUAGAUGUAGACGAGGACCGGUACGGCCGCCACUCGAAACGGCUGCUAGCGCGUUGCGAGGUGUGC [ExTryptoA.Ck]	1120 nM
AGUAAUCUCACGGCCGCCACUGUUUAUUGUUUUUAUAGUUAUAAAUCUUGCCAGUGAUGUUGGUACAGGACCGGGUGAGUUAAUA [#25 K4 Tryptophan B Same State]	402 nM
UGACUGGACUGAAGGAGCGCGCGAGACAAAGUCUCGAACUCGUAGUGAUGUUAGGAAAUAACGCAGGUAGGUCGCAGUCUAGUCU	611 nM
AAAUUCUUUUUUUUAUUUAACUUUUCAGAAGGAGCGUGGUAGUUCACAGGUAGGUCGCUGAAUUUUGGACUAGUGAUGUUAGUUA [JR_SSArginiA_Sub006]	234 nM
GGAGGAGAAUAUGAUACCAGCAGAGAGAGAGAGGAAGUAUAGUGAUGUUAUAUGAGAGAAUGCCCUUGGCAGCAUAAGAAGAAGG [SSTheophylB.A]	136 nM
UAGUCCUAGUGAUGGUUAUCACGUGGUGGGCGAGGACCGGUACGGCCGCCACUCGACUUUGCAGUGAUGUUGCAAACCGGACAAU [Exclusion - Tryptophan A (Freestyle 18)]	237 nM
GUGCAGUGAUGUUGCACGAGGAAAGACGAUACCAGCCGUAAAUAAGGCCCUUGGCAGCGUAGGCUAGCAUAAGGUAUGCUAGUCC [Atesermace]	108 nM
GUAGGAUGAGGAGGAGGAUGAAUUACUGAAGGAGCGCAUAGAAAUGCAGGUAGGUCGCGGUAAAGAAGUAUAGUGAUGUUAUAUA [SSArgA.F]	448 nM
CCCAAAAUAUGCAGUGAUGUUGCAACCGAUACCAGUAUCGAAAGAUACCCUUGGCAGCGGAAAACCGCUACGUAAUUUAAAAGGG [Ex Theophylline A K4 17]	311 nM
AAUAAAAUCACGGCCGCCACUGGUACUAGUAUUAGCAGUGAUGUUGCUAUGUAUAAUUUAUUAAAUAGGACCGGGUGAAUAUUUA [#27 K4 Tryptophan B Exclusion]	238 nM
GGUAGCAUGGCGGCCGCCACUAAUACUUCGUAGCCUGUAGCCGGCUUCGUAGAGUGAUGUUCUAUUAGGACCGGGCCAUGCUACC	450 nM
UGAGUUUGAGUGAUGUUCAGGCAUUGGUACGAGGAUAUCGAGGAGUUGAGAAGGCGUACUGCUCAACUUUGUAUGAAUACAUACA [FMN A Ex t2b]	106 nM
AUUUUUUUGUCAGGAUAUUAGUGUUGGUUUGGUUUGUUAGUGAUGUUGAUAUUUGUUUUAUGUAUUUAAGAAGGGAUUUAGCGGU [wxooemullin]	364 nM
UGAUACCAGACUGAUACCAGCCAGUGAUGUUGGCUAAUCCGAGAAGGAGUCAAAGACUCCGGCCCUUGGCAGCAGUCUGGUAUCU [TheoBX 4 #SwitchBubble #StaticStem]	133 nM
GAACGGAGUGAUGUUCCGUUGACGAUCCUACGAGGACCGGUACGGCCGCCACUCGUAUUGCAGUGAUGUUGCAACCAGCCGUACU [Exclusion Tryptophan A GF 10]	102 nM
UGUCAUUGGUCGGCCGCCACUAGGACCGGGAUUUUUCUAGUGAUGUUAGUUUGGUCGGCCGCCACUAGGACCGGGACCGAUGACU [KL-SSTryp-B13 #DoubleAptamer]	644 nM
CCACCAAGCACGGCCGCCACUAAAUCUGCAAGUAACCUAAAGUGAUGUUUUAUCUUGCGUCAGACUAGGACCGGGUGUCAAGUUA [theeternabot_sameState_KL_Trp_B_45]	387 nM
UUAGGAGUGGGAGGAUAUCCUGGUGUGGGUGAUGUUAGUGAUGUUGAAAGUGUAGUGAUGUUGUGCGGAGAAGGUCCAGUGUUGA [BDazzled - #10 - Exc. FMN B]	459 nM
AAUACAGUGUCGGCCGCCACUGUAACAUGCCAUGAGACAUGAGACAUGAGUGAUGUUCAUGUAGACAGGACCGGGACUCAUGUAU [KL-SSTryp-B3 #analogue]	455 nM
GAAAGAAAGUAUGAUACCAGACACCCGAGUGAUGUUCGGAGCAGUGUGAUGUUCUUUUAAGUCCCUUGGCAGCAUAAAAGAAAAG [whbob_SS_Theo_B_sa84]	126 nM
UAUUUAAUUUUUAAUUUUUAAAUUGCUGAUACCAGAGCCAAUUGGCUCCCUUGGCAGCGGAUCGAGUGAUGUUCGUAUAAUUUAA [AK1 SS Theophylline A]	35 nM
CUGGGUUGACGAAAAGUCAACAAAAGAGAAGGAGCGCACGAAAGUGCAGGUAGGUCGCUCAAUCCAGUGAUGUUGGGUCGUCCAG [#OpenEnded 11 #K4Late]	284 nM

Same assay, conditions: Eterna round: R107; input ligand: theophylline 20 uM

Sequence	apparent KD of K4 kissing-loop reporter
AGUGCACUGUCAGGAUAUAUACAGUGAUGUUGUGUAUGUCAGCAAGUCAAAGACUUGCUAUUUUGUGUAGAAGGGACUGUGUACA [whbob_Ex_FMNB__2th221]	155 nM
GCCGUAGAUUGAAGGAGCGGCAUUAACGAUGUUCUGGUAGUGAUGUUACCUCAGCAGACAUGCCAGGUAGGUCGCAAUCUACGGC	76.6 nM
AGUCCACUCUAAAGAGUGGACCUAAGGGAUACCAGUGAUGUUGGUCACCCUUGGCAGCCCUCUGUCAUCGAUAAAGAUGGCAGGA	137 nM
AGGCGGCAAGAUUGAUUGGAAAGUAAUCGACGAGGACCGGUACGGCCGCCACUCGAACACCAGUGAUGUUGGUCUGGCUUAAGCC [Exclusion Tryptophan A GF 20]	477 nM
ACGCUGUGAAUAACACAGCGAAUAAAUUCGCGAGGACCGGUACGGCCGCCACUCGCUAACUGCGAGUGAUGUUCGAUAAUAAAAU [Mat - Mod of OpenEnded 3 - D13]	201 nM
UGUCAUUGGUCGGCCGCCACUUCAUAAAGAGUGAUGUUCUAAAAGACGGAUCGAAAGAUCUGUCGAAGGACCGGGACCGAUGACU [TrypBS 18 #SwitchBubble #StaticStem]	915 nM
UGUCAUGGAAACAUGAACGUUAAAAUAAAUCGAGGACCGGUACGGCCGCCACUCGUAUAGCGGUCAGUGAUGUUGACUGUAAUAA [KL-SSTryp-A form2 sub10]	116 nM
AAUUUAGUGACGGCCGCCACUAUGGUGAUUUAUUUGUUUGAGUGAUGUUUUGAUGUUUGAUUUUGUAGGACCGGGUUAGGUGAUG [aaacmullin]	354 nM
UGUACCGAGGCAGGAUAUGUCGUCGAAAGACGAAAUGGAGUGAUGUUCCUUAAACUGCGAAAGCAGACAGAAGGGUCUUGGUACU [FmnBS 29 G10+U76]	167 nM
UGUAUGUGAUUUGAUACCAGACAAGCAGGUGUGACAAGAGUGAUGUUCUUGAUGGUUUGGGUCCCUUGGCAGCAAAUCGCAUACU [KL-SSTheoB16]	141 nM
CGAAAUAGAACGGCCGCCACUGUAAGUCCUGACAGUAAGUGAUGUUUGAAAGAUUCGGGUAUUCGCAGGACCGGGUUCGUCAUAA [theeternabot_sameState_KL_Trp_B_13]	759 nM
AUGUUGAGCGGAAGGAGCGGCUGAGCCAGUGAUGUUGGUUAAUCCAAGUGAUGUUGGAAAAGCCAGGUAGGUCGCCGUUUUACGU [whbob_SS_Arginine_B_2t145]	807 nM
CGCAGUGAUGUUGCUAUUAUUCUUGAUUAACGAGGACCGGUACGGCCGCCACUCGAUUUCUAUCUGAUCCAGUGUUUUGUUGAGU [#22 K4 Tryptophan A Exclusion]	360 nM
CCGCCGGUCGGAAGGAGCGCACGCCAGAGUGAUGUUCUGGCGCGGGCAUUUUGUGCCCGCGUGCAGGUAGGUCGCCGAUUCUGGC [Quxeorti]	452 nM
GUAUCAGUGAUGUUGAUAGGCGAGCGGGAUACCAGCCAAGACUCAGGCCCUUGGCAGCCCACAUAUCCCACGUAGAUAGUAGCUC [Same State - Theophylline A (Freestyle 16)]	139 nM
UACCCGUGCUACUCCAUCCAUGCCACACCGCGAGGACCGGUACGGCCGCCACUCGUCGGAAAGUGAUGUUUUCAAACAAAGUUGC	292 nM

Sequence	apparent KD of K4 kissing-loop reporter
AAGAAGGUCAAAGACCUUCGUGCUCGUGAUACCAGUCGCGAAAGCGGCCCUUGGCAGCACGGCAGUGAUGUUGCCAAGAGCACAA [#13 K4 Theophylline A Same State]	413 nM
AUAGACUUGCAGUGAUGUUGCAAGUGAGACUAGGAUAUCAGGAAGCUGAGAAGGAGUCAUCUCCUUCAGACAUCACUAUGAAGGA [whbob_SS_FMNA__2th180]	204 nM
CUGUCCUACGAAGGAUAUGCUGAUGGGAUCAAACAGUGAUGUUGUUAUGAACUUAGGCUUAUGUGCGCAGAAGGUCGUGGCGACG [theeternabot_sameState_KL_FMN_B_42]	801 nM
UCGGCAAAGUCGGCCGCCACUCCGGGCCCUAUAAAUGGGCGCAGUGAUGUUGCGGCUAGGCCUCUGAGGACCGGGACUUUGUAGA [Gebive]	146 nM
UUUAUAUAGUCGGCCGCCACUGAUUUUUUUAUAUGUUUAUGUUUAUACGAGUGAUGUUCGAUAUACAGGACCGGGACUUUUGUUA [JR_SSTryptoB_Sub018]	294 nM
CGGAUGUAGUGAUGUUAUAUUAGAUGUAGACGAGGACCGGUACGGCCGCCACUCGAAACGGCUGCUAGCGCGUUGCGAGGUGUGC [ExTryptoA.Ck]	419 nM
AGUAAUCUCACGGCCGCCACUGUUUAUUGUUUUUAUAGUUAUAAAUCUUGCCAGUGAUGUUGGUACAGGACCGGGUGAGUUAAUA [#25 K4 Tryptophan B Same State]	353 nM
UGACUGGACUGAAGGAGCGCGCGAGACAAAGUCUCGAACUCGUAGUGAUGUUAGGAAAUAACGCAGGUAGGUCGCAGUCUAGUCU	796 nM
AAAUUCUUUUUUUUAUUUAACUUUUCAGAAGGAGCGUGGUAGUUCACAGGUAGGUCGCUGAAUUUUGGACUAGUGAUGUUAGUUA [JR_SSArginiA_Sub006]	216 nM
GGAGGAGAAUAUGAUACCAGCAGAGAGAGAGAGGAAGUAUAGUGAUGUUAUAUGAGAGAAUGCCCUUGGCAGCAUAAGAAGAAGG [SSTheophylB.A]	123 nM
UAGUCCUAGUGAUGGUUAUCACGUGGUGGGCGAGGACCGGUACGGCCGCCACUCGACUUUGCAGUGAUGUUGCAAACCGGACAAU [Exclusion - Tryptophan A (Freestyle 18)]	287 nM
GUGCAGUGAUGUUGCACGAGGAAAGACGAUACCAGCCGUAAAUAAGGCCCUUGGCAGCGUAGGCUAGCAUAAGGUAUGCUAGUCC [Atesermace]	95.5 nM
GUAGGAUGAGGAGGAGGAUGAAUUACUGAAGGAGCGCAUAGAAAUGCAGGUAGGUCGCGGUAAAGAAGUAUAGUGAUGUUAUAUA [SSArgA.F]	483 nM
CCCAAAAUAUGCAGUGAUGUUGCAACCGAUACCAGUAUCGAAAGAUACCCUUGGCAGCGGAAAACCGCUACGUAAUUUAAAAGGG [Ex Theophylline A K4 17]	603 nM
AAUAAAAUCACGGCCGCCACUGGUACUAGUAUUAGCAGUGAUGUUGCUAUGUAUAAUUUAUUAAAUAGGACCGGGUGAAUAUUUA [#27 K4 Tryptophan B Exclusion]	233 nM
GGUAGCAUGGCGGCCGCCACUAAUACUUCGUAGCCUGUAGCCGGCUUCGUAGAGUGAUGUUCUAUUAGGACCGGGCCAUGCUACC	526 nM

— the supplement of paper PMC9170038
